Test results as given in the nanobody polyreactivity screen of Harvey et al. (2022).

Test: yeast display, Sf9 membrane polyspecificity reagent, FACS + sequencing; frameworks hold sequencing errors
In short: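 Sorting gates, low and high (top ~1%), were placed on anti-HA fluorescence to track expression and on streptavidin fluorescence to track reagent binding. A clone's polyreactivity label is taken from the gate it came out of. The reagent was 10% biotinylated, detergent-solubilized Sf9 membrane, applied for 1 hour at 4 °C to galactose-induced yeast display cells.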

Which “polyreactivity (PSR sort gate)” value does the source give for “QVQLVESGGGLVQAGGSLRLSCAASGIIFGWYAMGWYRPAPGKERELVAGISIGGSTYYADSVKGRFTISRDNANNTVYLQMNSLKPEDTAVYYCAADSYFVLPWSDYWGQGTQVTVSS” here?
The value was “high polyreactivity”.

With “QVQLVESGGGLVQAGGSLRLSCAASGIIFGYYAMGWYRQAPGKERELVATINWDGGSTYYADSVKGRFTISRDNAKNTVYLQMNSLKPEDTAVYYCAAAKPVQYRIAQAHVGYWGQGTQVTVSS” as the sequence, how does the “polyreactivity (PSR sort gate)” value read?
Its value is “low polyreactivity”.

For “QVQLVESGGGLVQAGGSLRLSCAASGIIFHGYAMGWYRQAPGKERDLVAAITASDGDTYYADSVKGRFTISRDNAKNTVYLQMNSMKPEDTAVYYCAADFWYYHTRMDYWGQGTQVTVSS”, which “polyreactivity (PSR sort gate)” value is on record?
The value was “low polyreactivity”.

For “QVQLVESGGGLVQAGGSLRLSCAASGIIFHGYAMGWYRQAPGKERELVAAITNSGGRTYYADSVKGRFTISRDNAKNTVYLQMNSLKPEDTAVYYCAADGHKYRMDYWGQGTQVTVSS”, which “polyreactivity (PSR sort gate)” value is on record?
Its value is “low polyreactivity”.

For “QVQLVESGGGLVQAGGSLRLSCAASGIIFIFYDMGWYRQAPGKERELVATITSGTNTYADSVKGRFTISRDNAKNTVYLQMNSLKPEDTAVYYCNAGAVHKKPARDYWGQGTQVTVSS”, which “polyreactivity (PSR sort gate)” value is on record?
Its value is “low polyreactivity”.

With “QVQLVESGGGLVQAGGSLRLSCAASGIIFINYAMGWYRQAPGKEWELVAAITSSGGSTYYADSVKGRFTISRDNAKNTVYLQMNSLKPEDTAVYYCAAVSSYWGQGTQVTVSS” as the sequence, how does the “polyreactivity (PSR sort gate)” value read?
Its value is “low polyreactivity”.

Which “polyreactivity (PSR sort gate)” value does the source give for “QVQLVESGGGLVQAGGSLRLSCAASGIIFIVNAMGWYRQAPGKERELVAAISNGGSTNYADSVKGRFTISRDNAKNTVYLQMNSLKPEDTAVYYCAADDEGWWVTNYDYWGQGTQVTVSS” here?
Its value is “low polyreactivity”.

For “QVQLVESGGGLVQAGGSLRLSCAASGIIFIYNGMGWYRQAPGKERELVATINWSGGNTYYADSVKGRFTISRDNAKNTVSLQMNSLKPEDTAVYDCAVRGSRFWGYDYWGQGTQVTVSS”, which “polyreactivity (PSR sort gate)” value is on record?
Its value is “low polyreactivity”.

For “QVQLVESGGGLVQAGGSLRLSCAASGIIFKSYAMGWSRQAPGKERELVAAITKRGGSTYYADSVKGRFTISRDNAKNTVYLQMNSLKPEDTAVYYCAADDGVGNTDDYWGQGTQVTVSS”, which “polyreactivity (PSR sort gate)” value is on record?
The value was “high polyreactivity”.

With “QVQLVESGGGLVQAGGSLRLSCAASGIIFKYNAMGRYRQAPGKEREFVAAITGSGGSTYYADSVKGRFTISRDNAKNTVYLQMYSLKPEDTAVYYCARPQWRDWYGYWGQGTQVTVSS” as the sequence, how does the “polyreactivity (PSR sort gate)” value read?
Its value is “low polyreactivity”.

With “QVQLVESGGGLVQAGGSLRLSCAASGIIFKYYAMGWYRQAPGKEREFVATISRRGGSTYYAYSVKGRFTISRDNAKNTVYLQMNSLKPEDTAVYYCATEYSPGREYKFNFWGQGTQVTVSS” as the sequence, how does the “polyreactivity (PSR sort gate)” value read?
The value was “high polyreactivity”.

Which “polyreactivity (PSR sort gate)” value does the source give for “QVQLVESGGGLVQAGGSLRLSCAASGIIFKYYAMGWYRQAPGKERELVAAISWTGDSTYADSVKGRFTISRDNAKNTVYLQMNSLKPEDTAVYYCAVAFRRVRSLGEGYWGQGTQVTVSS” here?
The value was “low polyreactivity”.

For “QVQLVESGGGLVQAGGSLRLSCAASGIIFKYYAMGWYRQAPGKERELVAAITWSDTRTYYADSVKGRFTISRDNAMNTVYLQMNSLKPEDTAVYYCAVDEPSLYSWGGGYYWGQGTQVTVSS”, which “polyreactivity (PSR sort gate)” value is on record?
The value was “high polyreactivity”.

For “QVQLVESGGGLVQAGGSLRLSCAASGIIFKYYAMGWYRQAPGKERELVAVISRSGGGTYYADSVKGRFTISRDNAKNTVYLQMNSLKPEDTAVYYCAAERSSGFDYWGQGTQVTVSS”, which “polyreactivity (PSR sort gate)” value is on record?
Its value is “high polyreactivity”.

With “QVQLVESGGGLVQAGGSLRLSCAASGIIFKYYARGWYRQAPGKERELVAGITSGGSTYYADSVKGRFTISRDNAKNTVYLQMNSLKPEDTAVYYCATRVRDGSQPQYRRRHSYDYWGQGTQVTVSS” as the sequence, how does the “polyreactivity (PSR sort gate)” value read?
Its value is “high polyreactivity”.

Which “polyreactivity (PSR sort gate)” value does the source give for “QVQLVESGGGLVQAGGSLRLSCAASGIIFKYYVMGWYRQAPGKERELVAGIRSGGNTYYADSVKGRFTISRDNAKNTVYFQMNSLKPEDTAVYYCNARPQFRFTDSYDYWGQGTQVTVSS” here?
Its value is “high polyreactivity”.
